In the DeepSol protein solubility set:

Assay: soluble on expression in E. coli; label from the status in PepcDB or PDB records

Row | Sequence | soluble on expression in E. coli
1 | ANVKLLLPYILKWEGGFVHDPADAGGATNKGVTIATWKRVGYDKDGDGDIDVEDLKLLTDDDVLNRVLKPFYWDRWKADLIESQKVANILVDWVWGSGKYGIVIPQRILGVQADGIVGNKTLQAVNSADPDELFESIFDARREFLEDITARSIKKYEDSIGRKATERELLRHTNKRFLRGWLNRLEDI | not soluble
2 | APGAGPGVRRRQRSLEEIPRLGQLRFFFQLFVQGYALQLHQLQVLYKAKYGPMWMSYLGPQMHVNLASAPLLEQVMRQEGKYPVRNDMELWKEHRDQHDLTYGPFTTEGHHWYQLRQALNQRLLKPAEAALYTDAFNEVIDDFMTRLDQLRAESASGNQVSDMAQLFYYFALEAICYILFEKRIGCLQRSIPEDTVTFVRSIGLMFQNSLYATFLPKWTRPVLPFWKRYLDGWNAIFSFGKKLIDEKLEDMEAQLQAAGPDGIQVSGYLHFLLASGQLSPREAMGSLPELLMAGVDTTSNTLTWALYHLSKDPEIQEALHEEVVGVVPAGQVPQHKDFAHMPLLKAVLKETLRLYPVVPTNSRIIEKEIEVDGFLFPKNTQFVFCHYVVSRDPTAFSEPESFQPHRWLRNSQPATPRIQHPFGSVPFGYGVRACLGRRIAELEMQLLLARLIQKYKVVLAPETGELKSVARIVLVPNKKVGLQFLQRQC | not soluble
3 | APVNWGPGETNDSTTVEPVLDGPYQPTTFNPPVDYWMLLAPTAAGVVVEGTNNTDRWLATILVEPNVTSETRSYTLFGTQEQITIANASQTQWKFIDVVKTTQNGSYSQYGPLQSTPKLYAVMKHNGKIYTYNGETPNVTTKYYSTTNYDSVNMTAFCDFYIIPREEESTCTEYINNGLPPIQNTR | soluble
4 | AQQGVFTLPARINFGVTVLVNSAATQHVEIFVDNEPRAAFSGVGTGDNNLGTKVINSGSGNVRVQITANGRQSDLVSSQLVLANKLNLAVVGSEDGTDMDYNDSIVILNWPLG | soluble
5 | ASCETTVTSGDTMTYSTRSISVPASCAEFTVNFEHKGHMPKTGMGHNWVLAKSADVGDVAKEGAHAGADNNFVTPGDKRVIAFTPIIGGGEKTSVKFKVSALSKDEAYTYFCSYPGHFSMMRGTLKLEE | soluble
6 | ASIPSSASVQLDSYNYDGSTFSGKIYVKNIAYSKKVTVVYADGSDNWNNNGNIIAASFSGPISGSNYEYWTFSASVKGIKEFYIKYEVSGKTYYDNNNSANYQVST | soluble
7 | ATQSPGDSRRLSIQRAIQSLVHAAQCRNANCSLPSCQKMKRVVQHTKGCKRKTNGGCPICKQLIALAAYHAKHCQENKCPVPFCLNIKQKLRQQQLQHRLQQAQMLRRRMASMQ | soluble
8 | ATRSPGVVISDDEPGYDLDLFCIPNHYAEDLERVFIPHGLIMDRTERLARDVMKEMGGHHIVALCVLKGGYKFFADLLDYIKALNRNSDRSIPMTVDFIRLKSYCNDQSTGDIKVIGGDDLSTLTGKNVLIVEDIIDTGKTMQTLLSLVRQYNPKMVKVASLLVKRTPRSVGYKPDFVGFEIPDKFVVGYALDYNEYFRDLNHVCVISETGKAKYKA | soluble
9 | ATVKFKYKGEEKEVDISKIKKVWRVGKMISFTYDEGGGKTGRGAVSEKDAPKELLQMLEKQKK | soluble
10 | AVPSPPPASPRSQYNFIADVVEKTAPAVVYIEILDRHPFLGREVPISNGSGFVVAADGLIVTNAHVVADRRRVRVRLLSGDTYEAVVTAVDPVADIATLRIQTKEPLPTLPLGRSADVRQGEFVVAMGSPFALQNTITSGIVSSAQRPARDLGLPQTNVEYIQTDAAIDFGNAGGPLVNLDGEVIGVNTMKVTAGISFAIPSDRLREFLHRGEKKNSSSGISGSQRRYIGVMMLTLSPSILAELQLREPSFPDVQHGVLIHKVILGSPAHRAGLRPGDVILAIGEQMVQNAEDVYEAVRTQSQLAVQIRRGRETLTLYVTPEVTE | soluble
11 | AVSLDRTRAVFDGSEKSMTLDISNDNKQLPYLAQAWIENENQEKIITGPVIATPPVQRLEPGAKSMVRLSTTPDISKLPQDRESLFYFNLREIPPRSEKANVLQIALQTKIKLFYRPAAIKTRPNEVWQDQLILNKVSGGYRIENPTPYYVTVIGLGGSEKQAEEGEFETVMLSPRSEQTVKSANYNTPYLSYINDYGGRPVLSFICNGSRCSVKKEKHHHHHH | soluble
12 | AYQLYRNTTLGNSLQESLDELIQSQQITPQLALQVLLQFDKAINAALAQRVRNRVNFRGSLNTYRFCDNVWTFVLNDVEFREVTELIKVDKVKIVACDGKNTGSNTTE | soluble
13 | CDQFVTDALKTFENTYLNDHLPHDIHKNVMRMVNHEVSSFGVVTSAEDSYLGAVDENTLEQATWSFLKDLKRITDSDLKGELFIKELLWMLRHQKDIFNNLARQFQKEVLCPNKCGVMSQTLIWCLKCEKQLHICRKSLDCGERHIEVHRSEDLVLDCLLS | not soluble
14 | DADAEFDIVIGNIEDIIMEDEFQHLQQSFMEKYYLEFDDSEENKLSYTPIFNEYIEILEKHLEQQLVERIPGFNMDAFTHSLKQHKDEVSGDILDMLLTFTDFMAFKEMFTDYRAEKEGRG | soluble
15 | DAVELFKKANAMLDEDEDERVDEAALRQLTEMGFPENRATKALQLNHMSVPQAMEWLIEHAEDPTIDTPL | soluble
16 | DAYIGVLIDDLVTKGTNEPYRLLTSRAEYRLLLRHDNADLRLTEIGHRIGLISDERYAAFEKKKAAIEAEKKRLHSVIIKPSPENQEYIRSLGGSELKDGVRGTDLMKRPEMNYETVTKLAPPEVPVPQDVAEQVEIQVKYEGYIEKSLQQVEKLKKMENKKIPDRIDYDAIKGIATEARQKLKNVRPLSVAQASRISGVNPADISILLVYLE | not soluble
17 | DDPQRVTWPTNAGTIQQALKRGYVVVAAGIRGRTTVDKSGQRVGQAPAFIVDMKAAIRYVKYNQGRLPGDTNRIITNGTSAGGATSALAGASGNSAYFEPALTALGAAPATDDIFAVSAYCPIHNLEHADMAYEWQFNGINDWHRYQPVAGTTKNGRPKFEPVSGQLTVEEQALSLALKAQFSTYLNQLKLTASDGTHLTLNEAGMGSFRDVVRQLLISSAQTAFDQGTDIHKYAGFVVTGNQVTDLDLSAYLKSLTRMKAVPAFDQLDLTSPENNLFGDATAKAKHFTALAQTRSTVTAQLADAELIQAINPLSYLTTTSSRVAKHWRIRHGAADRDTSFAIPIILAIMLENHGYGIDFALPWDIPHSGD | not soluble
18 | DGRITGMIQVAIDVTEQVVARKKLEESESRFRALVNASSDVVYRMNADWTVMRELEGRDFLTPAGTAMADWVETYTYREDRALVKATAAAAIEGKRIFELEHRVLKADGTIGWTFSRAIPILDEQ | not soluble
19 | DGTVVNYVGFQRDITERKEHERRLKALSESVQDLLQADTREEVAEIGVETARTVLGLEANTIHLYNEAERTLEPVAASDGIYDLLEDLPTFTPGDSIAWRVYESGDALAVDDVHADPDIYNPDTPIKSELYLPLGRHGILLAGSGTNAAFDQR | not soluble
20 | DGVGGDPAVALPHRRFEYKYSFKGPHLVQSDGTVPFWAHAGNAIPSSDQIRVAPSLKSQRGSVWTKTKAAFENWEVEVTFRVTGRGRIGADGLAIWYAENQGLEGPVFGSADLWNGVGIFFDSFDNDGKKNNPAIVIIGNNGQIHYDHQNDGASQALASCQRDFRNKPYPVRAKITYYQNTLTVMINNGFTPDKNDYEFCAKVENMIIPAQGHFGISAATGGLADDHDVLSFLTFQLTEPGKEPPTPDKEISEKE | soluble
21 | DGVRIFNSLAATVYADSTAAHADMQGRRLKAVSDGLDHNGTGLRVIAQTQQDGGTWEQGGVEGKMRGSTQTVGIAAKTGENTTAAATLGMGRSTWSENSANAKTDSISLFAGIRHDAGDIGYLKGLFSYGRYKNSISRSTGADEHAEGSVNGTLMQLGALGGVNVPFAATGDLTVEGGLRYDLLKQDAFAEKGSALGWSGNSLTEGTLVGLAGLKLSQPLSDKAVLFATAGVERDLNGRDYTVTGGFTGATAATGKTGARNMPHTRLVAGLGADVEFGNGWNGLARYSYAGSKQYGNHSGRVGVGYRF | soluble
22 | DHAAPLIFLIAGTGAPYNSTINEFLKKLYYGAGYHVVQLSSPTSYDFMSSASRFATPGVSTEDAEDLYRVMQAIRAQQAQLPVTDYYLTGYSLGALNAAFVSKLDETRRSFNFKKVLLLNPPVNLYTSISNLDKLVQTNVKGINNTTTFYELVLAKLTRYFRQKGYIDLNDALLFDFQQSKQHLTNEQMAMLIGTSFRFSSADIAFTSDLINRRGLIIPPKFPISEGTSLTPFLKRALQCDFDCYLTEQVIPMWRARTDGGSLLQLVDQVSLYALKDYLHSNTKIAVMHNADDVILGAGDLGFLRKTFGDRLTVYPYGGHCGNLNYRVNTDAMLEFFRG | not soluble
23 | DIQMTQSPSTLSASIGDRVTITCRASEGIYHWLAWYQQKPGKAPKLLIYKASSLASGAPSRFSGSGSGTDFTLTISSLQPDDFATYYCQQYSNYPLTFGGGTKLEIKRTVAAPSVFIFPPSDEQLKSGTASVVCLLNNFYPREAKVQWKVDNALQSGNSQESVTEQDSKDSTYSLSSTLTLSKADYEKHKVYACEVTHQGLSSPVTKS | soluble
24 | DKKLAIVIHDNPDPDAISSGLALKEIAKSLGVEASILYHGRIGHQENKAFVNLLGIDLGKMEEHDLKDFDEIALIDCSIPGVNNMVPPNSYVGIVIDHHPPGETEIKAEYIDIRPNFGATATIMTKYLQQLNINISKTLATALLYGIRTDTQDFKRKTDPADLSAASYLYPLSNHGILDQLEQPSMAI | not soluble
25 | DNVKYVSSVQRDKELLHAKYGKDIDKAEDVAKEYPSLESIVAKHPDIFVAGWNYGFSEEKNLTPDALKDQGIDSYILSESCRQEGSEKRGLYDPWEAVKMDISNIGKITSHADTADSVVKDIDSRLETLKKAPQADKAPTAFVFDSGTDTVFTSGKFGAPQAIIEAAGGRNGAENVEDTWTTVSWENLAASKPDVFVFVDYPGQEFEEKIAALRSNPATKNLPAVKENRFINLPYAMWTSGPLNIDAAEQMRKGFEKFGLVPSSEIKPSLELPASVPGQNYYK | not soluble
26 | DSLVFVQTDKSIYKPGQTVKFRVVSMDENFHPLNELIPLVYIQDPKGNRIAQWQSFQLEGGLKQFSFPLSSEPFQGSYKVVVQKKSGGRTEHPFTVEEFVLP | soluble
27 | DSTFTNISLADDIDHSSRILYPRPKSLLPKMMNADMDVDAENQVELEEKTRLINQVLELQHTLEDLSARVDAVKEENLKLKSENQVLGQYIENLMSASSVFQTTDTKSKRK | not soluble
28 | DTFIGWEPEVTHKKYFAMLDTISQVQGVPEPIIEAVAPLFFANNADQVHPELVASFKQSLESLTGERAVEVARIGRMVFGRRDVIEDAEKFALPTLIAVGREDKPRPVFESYLMHDCITGSELVEIPEAGHISSLEQPEFVNQMLLSFLNKVHA | not soluble
